In the Human Domainome abundance scans (Beltran et al. 2025) one finds abundance fitness data, which are given here for 84 substances.

± gives the uncertainty stated by the source.

The data set can be described thus: abundance fitness (aPCA) (normalised: wild type 0, dead -1); higher = more abundant; growth selection in yeast, the domain comes from the species named. The following applies: Homo sapiens.
In turn, “E3 ubiquitin-protein ligase NEDD4-like D204A, Q96PU5” registered an abundance fitness of -0.392 ± 0.068.

As for “E3 ubiquitin-protein ligase NEDD4-like D204C, Q96PU5”, the abundance fitness was -0.151 ± 0.099. Consider “E3 ubiquitin-protein ligase NEDD4-like D204E, Q96PU5”, for which the abundance fitness was -0.505 ± 0.089.

“E3 ubiquitin-protein ligase NEDD4-like D204G, Q96PU5” registered an abundance fitness of -0.491 ± 0.057. Turning to “E3 ubiquitin-protein ligase NEDD4-like D204H, Q96PU5”, the abundance fitness was -0.684 ± 0.14. The substance “E3 ubiquitin-protein ligase NEDD4-like D204I, Q96PU5” gave an abundance fitness of -1.04 ± 0.17. “E3 ubiquitin-protein ligase NEDD4-like D204K, Q96PU5” yielded an abundance fitness of -0.894 ± 0.13.

On to “E3 ubiquitin-protein ligase NEDD4-like D204L, Q96PU5”, for which the abundance fitness was -0.803 ± 0.072. The result for “E3 ubiquitin-protein ligase NEDD4-like D204M, Q96PU5” reads -0.751 ± 0.075; that for “E3 ubiquitin-protein ligase NEDD4-like D204N, Q96PU5”, -0.451 ± 0.14.

The substance “E3 ubiquitin-protein ligase NEDD4-like D204P, Q96PU5” showed an abundance fitness of -0.897 ± 0.15. Substance “E3 ubiquitin-protein ligase NEDD4-like D204Q, Q96PU5” came in with an abundance fitness of -0.668 ± 0.077. The figure for “E3 ubiquitin-protein ligase NEDD4-like D204R, Q96PU5” is -1.03 ± 0.062. In turn, “E3 ubiquitin-protein ligase NEDD4-like D204S, Q96PU5” displayed an abundance fitness of -0.037 ± 0.064. In turn, “E3 ubiquitin-protein ligase NEDD4-like D204V, Q96PU5” had an abundance fitness of -0.908 ± 0.074. “E3 ubiquitin-protein ligase NEDD4-like D204W, Q96PU5” registered an abundance fitness of -1.4 ± 0.12. For the substance “E3 ubiquitin-protein ligase NEDD4-like D228A, Q96PU5”, the abundance fitness is -0.091 ± 0.07. Regarding “E3 ubiquitin-protein ligase NEDD4-like D228C, Q96PU5”, the abundance fitness was -0.332 ± 0.067.

Consider “E3 ubiquitin-protein ligase NEDD4-like D228E, Q96PU5”, for which the abundance fitness is 0.062 ± 0.09.

For the substance “E3 ubiquitin-protein ligase NEDD4-like D228F, Q96PU5”, the abundance fitness was -0.329 ± 0.11. The substance “E3 ubiquitin-protein ligase NEDD4-like D228G, Q96PU5” displayed an abundance fitness of 0.031 ± 0.056.

The substance “E3 ubiquitin-protein ligase NEDD4-like D228H, Q96PU5” showed an abundance fitness of 0.122 ± 0.079. The result for “E3 ubiquitin-protein ligase NEDD4-like D228I, Q96PU5” reads -0.474 ± 0.12.

As for “E3 ubiquitin-protein ligase NEDD4-like D228K, Q96PU5”, the abundance fitness is -0.002 ± 0.079. The figure for “E3 ubiquitin-protein ligase NEDD4-like D228L, Q96PU5” is -0.14 ± 0.062. In the case of “E3 ubiquitin-protein ligase NEDD4-like D228M, Q96PU5”, the abundance fitness was -0.175 ± 0.099. “E3 ubiquitin-protein ligase NEDD4-like D228N, Q96PU5” came in with an abundance fitness of 0.063 ± 0.097. Regarding “E3 ubiquitin-protein ligase NEDD4-like D228P, Q96PU5”, the abundance fitness worked out at 0.099 ± 0.07. The substance “E3 ubiquitin-protein ligase NEDD4-like D228Q, Q96PU5” showed an abundance fitness of -0.277 ± 0.085. In turn, “E3 ubiquitin-protein ligase NEDD4-like D228R, Q96PU5” displayed an abundance fitness of -0.101 ± 0.061. “E3 ubiquitin-protein ligase NEDD4-like D228S, Q96PU5” registered an abundance fitness of -0.053 ± 0.059. “E3 ubiquitin-protein ligase NEDD4-like D228T, Q96PU5” yielded an abundance fitness of 0.042 ± 0.076.

Consider “E3 ubiquitin-protein ligase NEDD4-like D228V, Q96PU5”, for which the abundance fitness was -0.159 ± 0.071. The figure for “E3 ubiquitin-protein ligase NEDD4-like D228W, Q96PU5” is -0.419 ± 0.064. The result for “E3 ubiquitin-protein ligase NEDD4-like E188A, Q96PU5” reads -0.854 ± 0.29. The figure for “E3 ubiquitin-protein ligase NEDD4-like E188G, Q96PU5” is -1.07 ± 0.49; for “E3 ubiquitin-protein ligase NEDD4-like E188L, Q96PU5” it is -0.459 ± 0.28; for “E3 ubiquitin-protein ligase NEDD4-like E188S, Q96PU5” it is 0.089 ± 0.22. In the case of “E3 ubiquitin-protein ligase NEDD4-like E188V, Q96PU5”, the abundance fitness amounted to 0.297 ± 0.2. The substance “E3 ubiquitin-protein ligase NEDD4-like E189A, Q96PU5” showed an abundance fitness of -0.356 ± 0.065. In the case of “E3 ubiquitin-protein ligase NEDD4-like E189C, Q96PU5”, the abundance fitness is -0.176 ± 0.062.

“E3 ubiquitin-protein ligase NEDD4-like E189D, Q96PU5”: the abundance fitness was -0.189 ± 0.093. The result for “E3 ubiquitin-protein ligase NEDD4-like E189G, Q96PU5” reads -0.241 ± 0.058; that for “E3 ubiquitin-protein ligase NEDD4-like E189H, Q96PU5”, -0.242 ± 0.13. Regarding “E3 ubiquitin-protein ligase NEDD4-like E189I, Q96PU5”, the abundance fitness came out at 0.107 ± 0.13.

On to “E3 ubiquitin-protein ligase NEDD4-like E189K, Q96PU5”, for which the abundance fitness was -0.026 ± 0.082.

Take “E3 ubiquitin-protein ligase NEDD4-like E189L, Q96PU5”: the abundance fitness was -0.278 ± 0.065. The figure for “E3 ubiquitin-protein ligase NEDD4-like E189M, Q96PU5” is -0.477 ± 0.081. The figure for “E3 ubiquitin-protein ligase NEDD4-like E189N, Q96PU5” is 0.222 ± 0.095; for “E3 ubiquitin-protein ligase NEDD4-like E189P, Q96PU5” it is -0.384 ± 0.093; for “E3 ubiquitin-protein ligase NEDD4-like E189Q, Q96PU5” it is -0.062 ± 0.097. In the case of “E3 ubiquitin-protein ligase NEDD4-like E189R, Q96PU5”, the abundance fitness is -0.23 ± 0.055. In the case of “E3 ubiquitin-protein ligase NEDD4-like E189S, Q96PU5”, the abundance fitness is -0.136 ± 0.065. “E3 ubiquitin-protein ligase NEDD4-like E189T, Q96PU5” had an abundance fitness of -0.087 ± 0.077. The figure for “E3 ubiquitin-protein ligase NEDD4-like E189V, Q96PU5” is -0.267 ± 0.069; for “E3 ubiquitin-protein ligase NEDD4-like E189W, Q96PU5” it is -0.56 ± 0.065. “E3 ubiquitin-protein ligase NEDD4-like E189Y, Q96PU5”: the abundance fitness was 0.16 ± 0.1. As for “E3 ubiquitin-protein ligase NEDD4-like E200A, Q96PU5”, the abundance fitness is -0.105 ± 0.062. The result for “E3 ubiquitin-protein ligase NEDD4-like E200C, Q96PU5” reads -0.092 ± 0.08; that for “E3 ubiquitin-protein ligase NEDD4-like E200D, Q96PU5”, -0.346 ± 0.081.

“E3 ubiquitin-protein ligase NEDD4-like E200F, Q96PU5” had an abundance fitness of -0.328 ± 0.083.

With “E3 ubiquitin-protein ligase NEDD4-like E200G, Q96PU5”, the abundance fitness is -0.299 ± 0.059. Regarding “E3 ubiquitin-protein ligase NEDD4-like E200H, Q96PU5”, the abundance fitness was -0.721 ± 0.18. “E3 ubiquitin-protein ligase NEDD4-like E200K, Q96PU5” had an abundance fitness of -0.161 ± 0.062. With “E3 ubiquitin-protein ligase NEDD4-like E200L, Q96PU5”, the abundance fitness was -0.266 ± 0.08.

In the case of “E3 ubiquitin-protein ligase NEDD4-like E200M, Q96PU5”, the abundance fitness was -0.152 ± 0.074.

The substance “E3 ubiquitin-protein ligase NEDD4-like E200N, Q96PU5” came in with an abundance fitness of -0.471 ± 0.13.

As to “E3 ubiquitin-protein ligase NEDD4-like E200P, Q96PU5”, the abundance fitness was -1.29 ± 0.2. The substance “E3 ubiquitin-protein ligase NEDD4-like E200Q, Q96PU5” registered an abundance fitness of -0.072 ± 0.11. For the substance “E3 ubiquitin-protein ligase NEDD4-like E200R, Q96PU5”, the abundance fitness was -0.31 ± 0.065.

On to “E3 ubiquitin-protein ligase NEDD4-like E200S, Q96PU5”, for which the abundance fitness was -0.166 ± 0.077. With “E3 ubiquitin-protein ligase NEDD4-like E200T, Q96PU5”, the abundance fitness is -0.138 ± 0.081. “E3 ubiquitin-protein ligase NEDD4-like E200V, Q96PU5” had an abundance fitness of -0.179 ± 0.084. In the case of “E3 ubiquitin-protein ligase NEDD4-like E200W, Q96PU5”, the abundance fitness was -0.603 ± 0.069. In the case of “E3 ubiquitin-protein ligase NEDD4-like E200Y, Q96PU5”, the abundance fitness was -0.357 ± 0.072. For the substance “E3 ubiquitin-protein ligase NEDD4-like E201A, Q96PU5”, the abundance fitness was -0.1 ± 0.066. The substance “E3 ubiquitin-protein ligase NEDD4-like E201C, Q96PU5” yielded an abundance fitness of -0.084 ± 0.09. The substance “E3 ubiquitin-protein ligase NEDD4-like E201F, Q96PU5” showed an abundance fitness of -0.412 ± 0.14. The figure for “E3 ubiquitin-protein ligase NEDD4-like E201G, Q96PU5” is -0.282 ± 0.05; for “E3 ubiquitin-protein ligase NEDD4-like E201H, Q96PU5” it is -0.223 ± 0.13; for “E3 ubiquitin-protein ligase NEDD4-like E201L, Q96PU5” it is -0.257 ± 0.061. Substance “E3 ubiquitin-protein ligase NEDD4-like E201M, Q96PU5” displayed an abundance fitness of -0.066 ± 0.11.

Consider “E3 ubiquitin-protein ligase NEDD4-like E201N, Q96PU5”, for which the abundance fitness was -0.212 ± 0.06. The figure for “E3 ubiquitin-protein ligase NEDD4-like E201P, Q96PU5” is -0.255 ± 0.091.
